# Patent US5783421
# How the values were obtained:
# Factor Xa [1] = target: Factor Xa
# Factor Xa [2] = assay: modified prothrombinase complex assay (50 pM FXa, 1.35 µM prothrombin)
# Factor Xa [3] = assay: inhibition of FXa in the prothrombinase complex assay (250 pM FXa, 2.67 µM prothrombin)
substance,measurement,setting,value
naturally occurring FXa inhibitor isolated from dilute leech saliva (DLS) of Hirudo medicinalis,"IC50, generation of thrombin from prothrombin by FXa in a prothrombinase complex",Factor Xa [1],0.19 nM
same,Ki,Factor Xa [2],0.12 nM
same,Ki,Factor Xa [3],0.072 nM
